For 38 molecules, Ratio/Fc-WT, Ratio/Fc-H and Ratio/FWT results are on record in patent USRE46585 (LABORATOIRE FRANCAIS DU FRACTIONNEMENT ET DES …, dated 2017).

Sequences and labels used below:
B1: B4A_03 (other)
chain: CPPCPAPELLGGPSVFLFPPKPKDTLMISRTPEVTCVVVDVSHEDPEVKFNWYVDGVEVHNAKTKPWEEQYNSTYRVVSVLPVLHQDWLNGKEYKCKVSNKALPVPIEKTISKAKGQPREPQVYTLPPSRDELTKNQVSLTCLVKGFYPSDIAVEWESNGQPENNYKTTPPVLDSDGSFFLYSKLTVDKSRWQQGNVFSCSVMHEALHSHYTQKSLSLSPGK
notes: EU numbering
B2: B5A_25 (other)
chain: B1 chain with F18L, W67R, P82T, N90D, V105A, T186A
notes: EU numbering
B3: B6A_41 (other)
chain: B1 chain with W67R, P82T, V105A, S209Y, Q213R, K222E
notes: EU numbering
B4: L3A_39 (other)
chain: B1 chain with W67R, P82T, V105A, S150G, P170S
notes: EU numbering
B5: B6A_31 (other)
chain: B1 chain with W67R, P82T, V105A, S150G, M203L, H208P, S209N
notes: EU numbering
B6: S3A_06 (other)
chain: B1 chain with P5T, A6T, W67R, P82T, V105A, A153V, S209N
notes: EU numbering
B7: L6B_31 (other)
chain: B1 chain with P5T, W67R, V80A, P82A, V105A, A153V, L173P
notes: EU numbering
B8: L4A_28 (other)
chain: B1 chain with W67R, P82T, V105A, M203L, Q213R, P220S
notes: EU numbering
B9: B6A_20 (other)
chain: B1 chain with W67R, P82T, K95T, V105A, S209Y, K214R, K222E
notes: EU numbering
B10: B5A_16 (other)
chain: B1 chain with S14A, W67R, S73G, P82T, N90D, V105A, Q122R, S209Y, S215R
notes: EU numbering
B11: B5A_17 (other)
chain: B1 chain with W67R, P82T, N90D, V105A, Q137R, S209Y
notes: EU numbering
B12: T4A_42 (other)
chain: B1 chain with C1G, W67R, P82T, N90D, V105A, Q137R, S209Y
notes: EU numbering
B13: C5A_65 (other)
chain: B1 chain with P5T, W67R, P82T, N90D, Q161K, S209Y
notes: EU numbering
B14: C6A_12 (other)
chain: B1 chain with P5T, W67R, P82T, N90D, V105A, Q137E, S209Y
notes: EU numbering
B15: T7A_92 (other)
chain: B1 chain with V39E, W67R, P82T, V105A, P171L, S190N
notes: EU numbering
B16: T5A_55 (other)
chain: B1 chain with P5L, F16L, F18L, V39E, W67R, V105A, A153V, S209N
notes: EU numbering
B17: T5A_45 (other)
chain: B1 chain with A6T, F16L, V39E, W67R, P82T, V105A, A153T, V172M
notes: EU numbering
B18: C6A_48 (other)
chain: B1 chain with P5T, V39E, W67R, P82T, V105A, A153V
notes: EU numbering
B19: T4A_37 (other)
chain: B1 chain with P5S, V39E, W67R, P82T, V105A, P127S, A153V
notes: EU numbering
B20: T4A_48 (other)
chain: B1 chain with W67R, P82T, V83I, N90D, E157V, S209Y
notes: EU numbering
B21: C3A_13 (other)
chain: B1 chain with C1G, W67R, P82T, N90D, S209Y
notes: EU numbering
B22: C5A_09 (other)
chain: B1 chain with F16L, V39E, W67R, V105A, A153V
notes: EU numbering
B23: T5A_25 (other)
chain: B1 chain with C1G, V39E, W67R, P82T, V105A, Q122R, K145R, A153V
notes: EU numbering
B24: C6A_85 (other)
chain: B1 chain with W67R, V80A, P82T, N90D, N164K, S209Y
notes: EU numbering
B25: T5A_57 (other)
chain: B1 chain with F16L, W67R, P82T, N90D, K167R, S209Y
notes: EU numbering
B26: C5A_39 (other)
chain: B1 chain with K65E, W67R, P82T, N90D, V105A, Q117R, E157V, S209Y
notes: EU numbering
B27: T6A_75 (other)
chain: B1 chain with P5T, W67R, P82T, N90D, V105A, Q137R, S201T, S209Y
notes: EU numbering
B28: T5A_93 (other)
chain: B1 chain with W67R, V80A, P82T, N90D, P170A, S209Y
notes: EU numbering
B29: T6A_85 (other)
chain: B1 chain with T25A, W67R, P82T, N90D, N100S, S209Y
notes: EU numbering
B30: T5A_87 (other)
chain: B1 chain with W67R, P82T, N90D, Q137R, S209Y
notes: EU numbering
B31: C8A_15 (other)
chain: B1 chain with W67R, P82T, N90D, A102V, V172M, S209Y
notes: EU numbering
B32: C6A_78F (other)
chain: B1 chain with P3R, P5S, T31N, W67R, P82T, V105A, A153V, S209Y
notes: EU numbering
B33: T5A_74C (other)
chain: B1 chain with P3L, W67R, P82T, N90D, N136D, A153V, S209Y
notes: EU numbering
B34: T5A_74D (other)
chain: B1 chain with P3R, W67R, P82T, N90D, N136D, A153V, S209Y
notes: EU numbering
B35: C6A_78C (other)
chain: B1 chain with P5S, T31N, W67R, P82T, V105A, A153V, S209Y
notes: EU numbering
B36: T5A_74B (other)
chain: B1 chain with P5S, W67R, P82T, N90D, N136D, A153V, S209Y
notes: EU numbering
B37: T5A_74F (other)
chain: B1 chain with P3R, P5S, W67R, P82T, N90D, N136D, A153V, S209Y
notes: EU numbering
B38: C6A_78D (other)
chain: B1 chain with P3R, T31N, W67R, P82T, V105A, A153V, S209Y
notes: EU numbering

Where a chain is given by its changes, count along the chain named.

T1 sequence (P55899 24-297, chain 1 of 2): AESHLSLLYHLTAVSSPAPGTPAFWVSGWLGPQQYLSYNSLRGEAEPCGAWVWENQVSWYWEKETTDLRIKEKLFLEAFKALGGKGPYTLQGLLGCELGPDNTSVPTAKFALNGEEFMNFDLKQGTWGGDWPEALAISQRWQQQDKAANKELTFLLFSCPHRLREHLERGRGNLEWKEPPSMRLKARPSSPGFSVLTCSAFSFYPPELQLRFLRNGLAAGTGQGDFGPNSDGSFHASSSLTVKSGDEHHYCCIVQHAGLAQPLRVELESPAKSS
T1 sequence (P61769 21-119, chain 2 of 2): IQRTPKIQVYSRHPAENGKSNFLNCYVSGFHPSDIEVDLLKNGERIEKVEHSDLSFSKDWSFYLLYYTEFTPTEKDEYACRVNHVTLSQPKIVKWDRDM

The first test concerns the target T1, FcRn-p3 fusion protein (human, UniProt P55899 24-297; P61769 21-119).
T1 construct: baculovirus expressed; coated on ELISA wells; not shown: amino terminal part of bacteriophage p3 protein and CVDE protein
As to the kind of experiment: phage ELISA pH6. In general terms: An ELISA detects its analyte on a solid surface through an enzyme-linked reagent.
Regarding B1, the Ratio/Fc-WT turned out to be 3.7 fold.
As for B2, the Ratio/Fc-WT came to 3.6 fold.
On to B3, for which the Ratio/Fc-WT is 4.3 fold.
Still for that read-out and setting: then B4, with 3.2 fold; and B5, with 5 fold.
Same read-out and setting: then B6, with 3.6 fold; and B7, with 6.3 fold; and B8, with 5.2 fold.
Still for that read-out and setting: then B9, with 3.7 fold; and B10, with 5.6 fold.
On to B11, for which the Ratio/Fc-WT was 4.6 fold.

In another test the target is T1, FcRn-p3 fusion protein. As to the kind of experiment: phage ELISA pH6. The source holds these as a separate data set.
For the molecule B12, the Ratio/Fc-H was determined as 4.6 fold.
The same measure, in the same setting: for B13 the value was 4.2 fold.
For the molecule B14, the Ratio/Fc-H came out at 4.6 fold.
Still for that read-out and setting: then B15, with 6.7 fold; and B16, with 5.6 fold.
Same read-out and setting: for B17 the value was 4.5 fold; for B18, 4.5 fold.
On the same count and under the same terms, for B19 the value was 4 fold.
Consider B20, for which the Ratio/Fc-H worked out at 4.5 fold.
On the same count and under the same terms, then B21, with 5.6 fold; and B22, with 4.8 fold.
Regarding B23, the Ratio/Fc-H came to 4.6 fold.
Same read-out and setting: then B24, with 7.4 fold; and B25, with 4.9 fold; and B26, with 5 fold.
The same measure, in the same setting: then B27, with 5.7 fold; and B28, with 8 fold.
In the case of B29, the Ratio/Fc-H amounted to 5.1 fold.
In the case of B30, the Ratio/Fc-H came out at 7.8 fold.
Consider B31, for which the Ratio/Fc-H turned out to be 7.4 fold.

The next test concerns the target T1, FcRn-p3 fusion protein. As to the kind of experiment: phage ELISA pH6. This is another data set of the same source.
Turning to B32, the Ratio/Fc-H came to 9.4 fold.
On the same count and under the same terms, then B12, with 4.6 fold; and B13, with 4.2 fold; and B14, with 4.6 fold.
The same measure, in the same setting: then B15, with 6.7 fold; and B33, with 7.5 fold; and B16, with 5.6 fold.
For the molecule B34, the Ratio/Fc-H was determined as 26 fold.
For B17, the Ratio/Fc-H worked out at 4.5 fold.
Still for that read-out and setting: for B18 the value was 4.5 fold; for B19, 4 fold.
On the same count and under the same terms, then B20, with 4.5 fold; and B35, with 9.2 fold.
Still for that read-out and setting: for B21 the value was 5.6 fold.
In the case of B22, the Ratio/Fc-H was 4.8 fold.
Same read-out and setting: then B23, with 4.6 fold; and B36, with 5.9 fold.
The same measure, in the same setting: for B37 the value was 16.8 fold.
With B24, the Ratio/Fc-H was found to be 7.4 fold.
As to B25, the Ratio/Fc-H amounted to 4.9 fold.
The same measure, in the same setting: then B26, with 5 fold.
On the same count and under the same terms, then B27, with 5.7 fold; and B28, with 8 fold.
As for B29, the Ratio/Fc-H came to 5.1 fold.
On the same count and under the same terms, then B38, with 28.3 fold; and B30, with 7.8 fold.
B31: the Ratio/Fc-H was 7.4 fold.

The target of another test is T1, FcRn-p3 fusion protein. As to the kind of experiment: phage ELISA pH6 (est.).
For B12, the Ratio/FWT was 14.7 fold.
As for B13, the Ratio/FWT stood at 13.5 fold.
Same read-out and setting: then B14, with 14.9 fold.
Same read-out and setting: then B15, with 21.4 fold.
B16: the Ratio/FWT amounted to 17.9 fold.
With B17, the Ratio/FWT worked out at 14.3 fold.
Same read-out and setting: then B18, with 14.4 fold; and B19, with 12.8 fold; and B20, with 14.5 fold.
Take B21: the Ratio/FWT was 17.9 fold.
On the same count and under the same terms, for B22 the value was 15.2 fold.
In the case of B23, the Ratio/FWT is 14.7 fold.
With B24, the Ratio/FWT worked out at 23.8 fold.
Still for that read-out and setting: then B25, with 15.8 fold.
Still for that read-out and setting: for B26 the value was 15.9 fold.
The same measure, in the same setting: then B27, with 18.3 fold.
For B28, the Ratio/FWT was 25.7 fold.
As for B29, the Ratio/FWT was found to be 16.3 fold.
As for B30, the Ratio/FWT turned out to be 25 fold.
For the molecule B31, the Ratio/FWT was 23.7 fold.

A further test addresses T1, FcRn-p3 fusion protein. Put plainly: phage ELISA pH6 (est.). This is another data set of the same source.
For B32, the Ratio/Fc-WT was 30.1 fold.
With B12, the Ratio/Fc-WT came to 14.7 fold.
The same measure, in the same setting: for B13 the value was 13.5 fold; for B14, 14.9 fold; for B15, 21.4 fold.
For B33, the Ratio/Fc-WT amounted to 24 fold.
Same read-out and setting: then B16, with 17.9 fold; and B34, with 83.1 fold.
The same measure, in the same setting: then B17, with 14.3 fold.
On the same count and under the same terms, for B18 the value was 14.4 fold; for B19, 12.8 fold.
Take B20: the Ratio/Fc-WT came out at 14.5 fold.
The same measure, in the same setting: for B35 the value was 29.4 fold.
For the molecule B21, the Ratio/Fc-WT was found to be 17.9 fold.
On the same count and under the same terms, for B22 the value was 15.2 fold; for B23, 14.7 fold.
For the molecule B36, the Ratio/Fc-WT came out at 18.8 fold.
On to B37, for which the Ratio/Fc-WT stood at 53.8 fold.
On to B24, for which the Ratio/Fc-WT stood at 23.8 fold.
As for B25, the Ratio/Fc-WT is 15.8 fold.
Take B26: the Ratio/Fc-WT came out at 15.9 fold.
Still for that read-out and setting: for B27 the value was 18.3 fold.
On the same count and under the same terms, then B28, with 25.7 fold; and B29, with 16.3 fold.
On to B38, for which the Ratio/Fc-WT was found to be 90.5 fold.
Same read-out and setting: for B30 the value was 25 fold; for B31, 23.7 fold.
